Reference: patent US8263344B2, “Compounds regulating calreticulin, KDEL receptor and/or Erp-57 cell surface exposure and uses thereof to evaluate the efficiency of a cancer treatment” (Institut Gustave Roussy, priority 2006, dated 2012)

What was measured:
CT26 tumour cells = assay: Anti-tumour vaccination with treated (dying) CT26 cells and challenge with live tumour cells; type: in vivo, BALB/c mice
CT26 cells [1] = assay: Phagocytosis of tumour cells by dendritic cells (DC); type: cell-based, BALB/c mice
Description: BM cells were flushed from the tibias and femurs of BALB/c mice with culture medium composed of RPMI 1640 medium (Invitrogen Life Technologies) supplemented with 10% heat-inactivated FBS (Invitrogen), sodium pyruvate, 50 μM 2-ME (Sigma), 10 mM HEPES (pH 7.4), and penicillin/streptomycin (Invitrogen). After one centrifugation, BM cells were resuspended in Tris-ammonium chloride for 2 min to lyse RBC. After one more centrifugation, BM cells (1×10^6 cells/ml) were cultured in medium supplemented with 100 ng/ml recombinant mouse FLT3 ligand (R&D systems) in 6-well plates (Costar Corning). After 7 days, the non-adherent and loosely adherent cells were harvested with Versene, washed and transferred in 12-well plates (1.5×10^6 cells/plate) for cocultures with tumour cells.
In 12-well plates, […] adherent CT26 cells were labelled with Celltracker Green (Calbiochem) and then incubated with drugs. In some experiments viable CT26 were coated with 2 μg/10^6 cells of chicken anti-CRT antibody (ABR affinity bioreagents) or an isotype control for 30 min prior to washing and feeding to dendritic cells Cs. Alternatively CT26 cells were coated with 2 μg/10^6 cells of rCRT on ice for 30 min and washed twice prior to addition to dendritic cells. Cells were then harvested, washed three times with medium supplemented with FBS and cocultured with immature DC for 2 hours at a ratio of 1:1 and 1:5. At the end of the incubation, cells were harvested with versene, pooled with non-adherent cells present in the supernatant, washed and stained with CD11c-FITC antibody. Phagocytosis was assessed by FACS analysis of double positive cells. Phagocytic indexes refer to the ratio between values obtained at 4° C. and values obtained at 37° C. of co-incubation between DC and tumour cells.

CT26 tumours [2] = assay: Single intratumoural injection into established CT26 tumours, immunocompetent mice; type: in vivo, BALB/c mice; conditions: for therapeutic effect of intratumoural injection, single agent, immunocompetent mice: established 14-day-old CT26 tumours
CT26 tumours [3] = assay: Single intratumoural injection into established CT26 tumours, athymic mice; set-up: species or system nu/nu Balb/c mice; conditions: mouse, in vivo
HeLa cells = assay: Surface ERp57 detection (immunofluorescence, flow cytometry); type: cell-based, human; conditions: 2 h; MTX 1 μM, Tau 150 nM
Description: HeLa cells were cultured on cover slips (in RPM1160 medium supplemented with 10% fetal calf serum, L-glutamine and antibiotics), in the absence (control) or in the presence of 1 μM mitoxantrone (MTX, Sigma) for 2 h. For the intracellular stainings, HeLa cells were fixed and permeabilised by means of Cytofix/Cytoperm kit from Becton Dickinson according to the manufacturer's instructions. For the surface stainings, HeLa cells were fixed with paraformadehyde (4% w/v) on ice for 5 min. […] Nuclei were labelled with DAPI mounting medium (Vectashield). Fluorescence microscopy was analyzed with a Leica IRE2 equipped with a DC300F camera. Size bars represent 10 μm.
HeLa cells were treated with or without mitoxantrone (MTX, 1 μM) or tautomycin (Tau, 150 nM, Sigma) for 2 h. Cells were washed twice with PBS and fixed in PFA (4% w/v) for 5 min. HeLa cells were stained with an antibody against Erp57 (pAb from Abcam, ab10827) at 1:200 dilution or isotype control, in staining buffer (PBS, 1% FCS) for 30 min on ice, followed by washing. An anti-rabbit Alexa fluor 488 immunoglobulin conjugate (Molecular Probes-Invitrogen) diluted at 1:500 was added for an additional 30 min on ice before washing and analysed by flow cytometry (FACScan, Becton Dickinson). […] The CellQuest software was used to analyse the mean fluorescence intensity (MFI) and the percentage of ERp57 positive cells.
FIG. 12: ERp57 exposure depends on the activation of a caspase. • (A) HeLa cells were treated with MTX (1 μM) for 2 h in the presence or absence of 50 μM zVAD.fmk. The MFI of surface Erp57 positive cells was analysed as described in FIG. 9. • (B) HCT116 parental cells stably transfected with either a vector encoding p35 (Stennicke et al., 2002; Date et al., 2003) or with a PCMV vector (Sigma) as control, were treated with MTX (1 μM) for 2 h. The MFI of surface Erp57 positive cells was analysed as described in FIG. 9. • (C) HCT116 cells were pre-incubated in the presence of 50 μM biotinylated VAD.fmk (Calbiochem) for 2 h. […]

CT26 cytoplasts = assay: CRT exposure on enucleated cells (cytoplasts); type: cell-based, murine
Description: FIG. 5A: CRT exposure after anthracyclin treatment in the absence of a nucleus. Intact cells or enucleated cells (cytoplasts) were treated for 2 hours with mitoxantrone, followed by immunofluorescence detection of CRT exposure. Inserts show the effective removal of Hoechst 33342-stainable nuclei from the cytoplasts.
Trypsinized CT26 cells were enucleated as described in the publication of Andreau, K. et al. Contagious apoptosis facilitated by the HIV-1 envelope. Fusion-induced cell-to-cell transmission of a lethal signal. J. Cell Sci. 117, 5643-53 (2004). Briefly, cells were treated in 2 ml of complete RPMI medium containing cytochalasin B (10 μg/ml; Sigma) and DNase I (80 U/ml; Sigma). Cell suspension was adjusted to a final concentration of 5×10^6/ml and incubated at 37° C. for 45 minutes before being layered onto a previously prepared discontinuous Ficoll (Pharmacia) density gradient (3 ml of 100%, in 1 ml of 90% and 3 ml of 55% Ficoll Paque layer containing 5 μg/ml cytochalasin B and 40 U/ml DNase I; gradients were prepared in ultracentrifuge tubes and pre-equilibrated at 37° C. in a CO2 incubator overnight). […] Then the cell surface CRT was detected (see materials and methods) and the viability was determined by with propidium iodine staining (2 μg/ml, Sigma) for 5 min followed by cytofluorometric analysis. […] Phagocytosis was assessed by FACS analysis of double positive cells.

MCA205, B16F10, J558 = assay: CRT exposure on a panel of murine tumour cell lines; type: cell-based
HeLa, A549, HCT116 = assay: CRT exposure on a panel of human tumour cell lines; type: cell-based
CT26 cells [4] = assay: Local immune response: footpad injection, IFN-γ secretion by draining lymph node cells; type: in vivo, Balb/c mice; conditions: foot pad injection
Description: FIG. 4C: Exogenous supply of CRT enhances the immunogenicity of CRT-negative dying cells. CT26 cells lacking CRT expression after depletion of CRT with a siRNA and mitoxantrone treatment or after mitomycin treatment were coated with rCRT (inserts) and then injected in the food pad, followed by assessment of the IFN-γsecretion by cells from the draining lymph nodes as in FIG. 4B.
Tumours were evaluated weekly, using a caliper.

DC = DC maturation ex vivo; type: cell-based; conditions: rCRT alone, over a large range of concentrations

Q: What does the source list for `O=C1c2c(O)ccc(O)c2C(=O)c2c(NCCNCCO)ccc(NCCNCCO)c21` [mitoxantrone]?
A: immunogenic apoptosis / immunogenic cell death (protection against tumour growth) (CT26 tumour cells; dying CT26 cells injected into one flank, rechallenge with live tumour cells in opposite flank 8 days later): elicited immunogenic cell death; phagocytosis of treated tumour cells by DC (CT26 cells [1]; within a few hours after treatment): acquired the property to be phagocytosed by DC; therapeutic effect of intratumoural injection, single agent, immunocompetent mice (CT26 tumours [2]): permanent regression in some but not all cases; therapeutic effect of intratumoural injection, single agent, nu/nu mice (CT26 tumours [3]): no cure; surface exposure of ERp57 (HeLa cells): appear on the surface; time to CRT exposure in enucleated cells (cytoplasts) (CT26 cytoplasts): ≤ 1 h; CRT exposure, murine tumour cell lines (MCA205, B16F10, J558): induced CRT exposure; CRT exposure, human tumour cell lines (HeLa, A549, HCT116): induced CRT exposure

B1: rCRT: recombinant CRT protein (rCRT), which binds to the surface of the cells (protein, UniProt P27797 18-417, looked up)
Calreticulin: EPAVYFKEQFLDGDGWTSRWIESKHKSDFGKFVLSSGKFYGDEEKDKGLQTSQDARFYALSASFEPFSNKGQTLVVQFTVKHEQNIDCGGGYVKLFPNSLDQTDMHGDSEYNIMFGPDICGPGTKKVHVIFNYKGKNVLINKDIRCKDDEFTHLYTLIVRPDNTYEVKIDNSQVESGSLEDDWDFLPPKKIKDPDASKPEDWDERAKIDDPTDSKPEDWDKPEHIPDPDAKKPEDWDEEMDGEWEPPVIQNPEYKGEWKPRQIDNPDYKGTWIHPEIDNPEYSPDPSIYAYDNFGVLGLDLWQVKSGTIFDNFLITNDEAYAEEFGNETWGVTKAAEKQMKDKQDEEQRLKEEEEDKKRKEEEEAEDKEDDEDKDEDEEDEEDKEEDEEEDVPGQAKDEL
Q: For B1, which “anti-cancer immune response to rCRT-coated cells without prior treatment with cell death inducers” value (CT26 tumour cells; mouse, in vivo) is on record?
A: failed to elicit an anti-cancer immune response

Q: What about the “anti-tumour immune response to etoposide-treated cells coated with rCRT” value (CT26 tumour cells; mouse, in vivo) of the same molecule?
A: elicited a vigorous anti-tumour immune response

Q: And the “immunogenicity of mitoxantrone-treated CT26 cells with CRT knock-down, complemented with rCRT” value (CT26 tumour cells; mouse, in vivo)?
A: restored

Q: And the “phagocytosis by DC and CRT expression after CRT-specific siRNA, with addition of rCRT” value (CT26 cells [1])?
A: could reverse the defect

Q: What about the “effect of rCRT injected into a distant site on intratumourally injected etoposide” value (CT26 tumours [2]; contralateral subcutaneous injection) of the same molecule?
A: did not ameliorate the antitumoural effects

Q: And the “therapeutic effect of intratumoural injection, single agent, immunocompetent mice” value (CT26 tumours [2])?
A: no major therapeutic effect

Q: And the “therapeutic effect combined with a cell death inducer (etoposide or mitomycin C), immunocompetent mice” value (CT26 tumours [2]; intratumoural)?
A: able to cause tumour regression

Q: What about the “therapeutic effect of intratumoural injection, single agent, nu/nu mice” value (CT26 tumours [3]) of the same molecule?
A: no major therapeutic effect

Q: And the “immunogenicity (interferon production by T cells from popliteal lymph node) of mitomycin-treated cells coated with rCRT” value (CT26 cells [4])?
A: greatly enhanced the immunogenicity

Q: What about the DC maturation (DC) of the same molecule?
A: could not promote DC maturation
